Earlier results as cited in article PMC6340931.
pKd: −log10 of the molar value. Read-outs that look alike come from different tables or passages of the source.

Columns and labels:
[1] = molecular target: Neurotensin (Homo sapiens) (UniProt P30990)
[2] = molecular target: Sortilin-derived propeptide (SDP) Gln1-Arg44 (Homo sapiens) (UniProt Q99523)
[3] = molecular target: Sortilin-derived propeptide (SDP) Gln1-Arg44 (Homo sapiens) (UniProt Q99523); remark: listed apart in the source

In the case of Sortilin (from UniProt Q99523), the pKd [1] is given as 9.52.
For Sortilin mature (from UniProt Q99523), the pKd [2] is listed as 8.30.
For TREK-1 (from UniProt O95069), the pKd [3] is listed as 8.30.
